Series [1] addresses T1, FimT Lp (Legionella pneumophila, UniProt Q5ZVL2 38-162). The series can be described thus: ITC; 50 mM Tris-HCl pH 7.2, 50 mM NaCl; […]; ITC 30 C; MST 50-150 mM NaCl, 0.05% Tween-20, […]. The settings on record: protein: recombinant; tags: His6-SUMO cleaved; blunt. Background: ITC needs no label: the signal is the heat of the interaction.
Series [2] addresses T1, FimT Lp. Put plainly: NMR titration; 50 mM NaCl; 50 mM Tris-HCl pH 7.2, 50 mM NaCl; […]; ITC 30 C; MST 50-150 mM NaCl, 0.05% Tween-20, […]. The settings on record: protein: recombinant; tags: His6-SUMO cleaved; blunt.
For series [3], the target named is FimU Lp (Legionella pneumophila, UniProt Q5ZXU9 96-235). The series can be described thus: EMSA; up to 100 uM protein; 50 mM Tris-HCl pH 7.2, 50 mM NaCl; […]; ITC 30 C; MST 50-150 mM NaCl, 0.05% Tween-20, […]. The settings on record: protein: recombinant; tags: His6-SUMO cleaved; blunt. On the technique in general: A gel shift assay detects complexes by their altered migration in electrophoresis.

Series [4] concerns the target PilA1 Lp (Legionella pneumophila, UniProt Q5ZU93 35-142). The description is as above. The settings on record: protein: recombinant; tags: His6 cleaved (PreScission); blunt.
Series [5] addresses PilA2 Lp (Legionella pneumophila, UniProt Q5ZU92 34-140). The series is described as above. To be noted: protein: recombinant; tags: His6 cleaved (PreScission); blunt.
The target in series [6] is T1, FimT Lp. Put plainly: EMSA; Kd stated as low uM range; 50 mM Tris-HCl pH 7.2, 50 mM NaCl; […]; ITC 30 C; MST 50-150 mM NaCl, 0.05% Tween-20, […]. To be noted: protein: recombinant; tags: His6-SUMO cleaved; blunt.
In series [7] the target is FimT Pa (Pseudomonas aeruginosa PAO1, UniProt Q9HVN0 36-169). Put plainly: EMSA; affinity same order of magnitude as FimT Lp; 50 mM Tris-HCl pH 7.2, 50 mM NaCl; […]; ITC 30 C; MST 50-150 mM NaCl, 0.05% Tween-20, […]. To be noted: protein: recombinant; tags: His6-SUMO cleaved; blunt.
For series [8], the target named is FimT Xc (Xanthomonas campestris pv. campestris …, UniProt Q8P7X0 39-183). Described as above. The settings on record: protein: recombinant; tags: His6-SUMO cleaved; blunt.
Series [9] has as its target T1, FimT Lp. Put plainly: MST/TRIC; 50 mM NaCl; 50 mM Tris-HCl pH 7.2, 50 mM NaCl; […]; ITC 30 C; MST 50-150 mM NaCl, 0.05% Tween-20, […]. The settings on record: protein: recombinant; tags: His6-SUMO cleaved; label: 5'-FAM on one strand; blunt.
Series [10] has as its target T1, FimT Lp. The series can be described thus: ITC; 50 mM NaCl, 30 C; N 1.09; 50 mM Tris-HCl pH 7.2, 50 mM NaCl; […]; ITC 30 C; MST 50-150 mM NaCl, 0.05% Tween-20, […]. To be noted: protein: recombinant; tags: His6-SUMO cleaved.
Series [11] has as its target T1, FimT Lp. Put plainly: EMSA; 50 mM Tris-HCl pH 7.2, 50 mM NaCl; […]; ITC 30 C; MST 50-150 mM NaCl, 0.05% Tween-20, […]. The settings on record: protein: recombinant; tags: His6-SUMO cleaved.

Here are results for five molecules from publication PMC8897410.

The term Kd denotes the concentration at which binding is half-saturated.

B1: 12mer dsDNA (dsDNA)
DNA 1: GTTCGCAACGAA
DNA 2: TTCGTTGCGAAC
B1: the values for the Kd in series [1] and in series [2] were 2800 ± 200 nM and roughly 8.1 µM, respectively.

B2: 30mer dsDNA (dsDNA)
DNA 1: TTAAATAGGCTTGGCAGGGTTAGGGTAGGG
DNA 2: CCCTACCCTAACCCTGCCAAGCCTATTTAA
On to B2, for which the binding result was “no binding” in series [3]; “no binding” in [4]; “no binding” in series [5]; “binds” in series [6]; “binds” in [7]; “binds” in series [8].

B3: FAM-12mer dsDNA (dsDNA)
DNA 1: GTTCGCAACGAA
DNA 2: TTCGTTGCGAAC
For B3, in series [9], the Kd turned out to be 6.3 ± 0.9 µM.

Regarding GTTCGCAACGAA (ssDNA) [12mer ssDNA], in series [10], the Kd was 7 ± 0.3 µM.

For TTAAATAGGCTTGGCAGGGTTAGGGTAGGG (ssDNA) [30mer ssDNA], the binding result in [11] is given as “binds”.
